Among the data in patent publication US20220204621A1 (UCL BUSINESS, published 2022) are binding result, cytotoxicity against neuroblastoma cell lines; lowest concentration named (micrograms/ml) and dose dependent cytotoxicity across ROR1 positive pancreatic cell lines (PANC-1, SUIT-2, CFPAC1, HPAF-II, MiaPaCa2, PSN-1); lowest concentration with significant activity values, retold here.

Assay [1] concerns the target human ROR1 with the combination of Q(261)H and I(254)V (human, UniProt Q01973 30-937, limits assumed). Put plainly: antibody binding to mutated human ROR1 constructs.
Assay [2] addresses human Receptor Tyrosine Kinase Like Orphan Receptor 1 (ROR1), full length (human) (UniProt Q01973). Put plainly: cell-based or functional assay.

human Receptor Tyrosine Kinase Like Orphan Receptor 1 (ROR1), full length (human), sequence (Q01973 30-937): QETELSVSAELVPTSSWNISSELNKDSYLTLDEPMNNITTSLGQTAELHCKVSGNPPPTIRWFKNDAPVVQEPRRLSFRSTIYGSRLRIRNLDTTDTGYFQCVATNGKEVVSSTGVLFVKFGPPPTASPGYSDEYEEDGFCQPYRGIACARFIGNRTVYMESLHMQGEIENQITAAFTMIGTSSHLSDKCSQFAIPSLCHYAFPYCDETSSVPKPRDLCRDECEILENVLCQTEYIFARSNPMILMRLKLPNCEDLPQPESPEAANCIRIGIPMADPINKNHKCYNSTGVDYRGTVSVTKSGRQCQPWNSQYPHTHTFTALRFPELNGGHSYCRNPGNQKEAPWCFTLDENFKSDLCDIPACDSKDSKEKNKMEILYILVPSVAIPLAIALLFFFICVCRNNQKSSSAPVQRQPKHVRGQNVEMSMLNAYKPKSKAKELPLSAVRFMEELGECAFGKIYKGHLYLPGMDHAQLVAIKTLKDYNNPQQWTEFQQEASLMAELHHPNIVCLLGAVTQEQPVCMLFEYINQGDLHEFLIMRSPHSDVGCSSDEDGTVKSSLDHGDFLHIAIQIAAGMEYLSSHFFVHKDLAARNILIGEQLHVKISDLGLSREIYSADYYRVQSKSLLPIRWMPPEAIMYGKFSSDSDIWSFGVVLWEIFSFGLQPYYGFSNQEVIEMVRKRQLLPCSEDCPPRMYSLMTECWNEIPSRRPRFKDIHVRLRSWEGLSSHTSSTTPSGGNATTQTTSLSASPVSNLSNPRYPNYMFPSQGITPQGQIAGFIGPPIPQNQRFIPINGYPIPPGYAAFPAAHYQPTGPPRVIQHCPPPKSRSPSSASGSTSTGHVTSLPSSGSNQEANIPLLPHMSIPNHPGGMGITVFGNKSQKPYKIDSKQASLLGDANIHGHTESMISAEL
human ROR1 with the combination of Q(261)H and I(254)V, sequence (Q01973 30-937 I254V/Q261H limits assumed): as the sequence (Q01973 30-937) above, with I225V, Q232H counted along it

B1: Clone F antibody (antibody, V domains shown)
VH: EVQLVESGGGLVQPGRSLKLSCAASGFIFSEHNMAWVRQAPKKGLEWVATISDDGRNTYYRDSMRGRFTISRENARSTLYLQLDSLRSEDTATYYCASHRYNLFDSWGQGVMVTVSS
VL: DIQMTQSPSFLSASVGDRVTINCKASQNIDRYLNWYQQKLGEAPKRLLYNTNKLQTGIPSRFSGSGSATDFTLTISSLQPEDFATYFCLQYNSLPLTFGSGTKLEIK
notes: Rat anti-ROR1 antibody from a hybridoma library
Regarding B1, the binding result in assay [1] is “no binding”.

B2: ROR1xCD3 BiTE (membrane proximal binding ROR1-BiTE specific for the Frizzled domain) (bispecific antibody, part only; not given: OKT3 scFv and linkers, part only)
chain, part: HHHHHHEVQLVESGGGLVQPGRSLKLSCAASGFIFSEHNMAWVRQAPKKGLEWVATISDDGRNTYYRDSMRGRFTISRENARSTLYLQLDSLRSEDTATYYCASHRYNLFDSWGQGVMVTVSSDIQMTQSPSFLSASVGDRVTINCKASQNIDRYLNWYQQKLGEAPKRLLYNTNKLQTGIPSRFSGSGSATDFTLTISSLQPEDFATYFCLQYNSLPLTFGSGTKLEIK
For the molecule B2, in assay [2], the cytotoxicity against neuroblastoma cell lines; lowest concentration named (micrograms/ml) was 0.01 and the dose dependent cytotoxicity across ROR1 positive pancreatic cell lines (PANC-1, SUIT-2, CFPAC1, HPAF-II, MiaPaCa2, PSN-1); lowest concentration with significant activity worked out at 0.1 ng/mL.
